Measured values as given in patent US20110129488A1, “IMMUNOTHERAPY COMPOSITIONS FOR THE TREATMENT AND PREVENTION OF AMYLOIDOSIS” (MEDIVET PHARMA, S.L., priority 2008, published 2011).
Where no end group is shown, it is not given here.

Experiments:
[1] = target: T1, canine Abeta 1-40 peptide (Canis lupus familiaris, UniProt Q28280); experiment: ELISA titration of affinity-purified antibodies from rabbit serum; assay type: binding, dog
T1 construct: made in house; host or cells: chemical synthesis (Fmoc solid phase), no expression host
Description: Antibody purification was made by affinity chromatography in columns of 4B Sepharose activated with BrCN (GE healthcare 15gr) according to standard procedures. Synthetic Abeta1-40 peptide (SEQ ID NO 1) was linked to the BrCN and used as antigen for the affinity purification of antibodies. Anti-Abeta28-40 antibodies were purified from rabbit serum samples presenting the highest level of titers, i.e. serum samples collected on day 31 after immunization (example 2). The same was true for serum samples used for purification of anti-Abeta 1-40 antibodies. Purified antibodies were firstly eluted with an acid solution of 100 mM glycine in PBS (pH 2.5) and, then with a basic solution of 100 mM glycine and 4 M urea in PBS (pH 9)
The purified antibodies were quantified by ELISA on 96-well plates developed by the biotin-avidin-peroxidase method. Plate sensitization was made overnight at 4° C. with […] of canine Abeta 1-40 peptide diluted in 50 mM NaHCO3 pH 9.6. The ELISA procedure was then carried out as explained in example 2.

Abeta 1-40 peptide = Abeta 1-40 peptide (Canis lupus familiaris, UniProt Q28280); experiment: Anti-Abeta IgG titration (ELISA) of serum from immunized rabbits; assay type: in vivo, rabbit
Protocol: To design a veterinary vaccine composition that generates a high level of high affinity antibodies with cross reactivity to the soluble Abeta 1-40 peptide and the plaques in the CNS of dogs with CDS, the relative immunogeneicity of the synthesized sequences of example 1 were characterized separately. To do that, SEQ ID NO 1 and SEQ ID NO 3 were administered conjugated with KLH and mixed with 1 mg of Alum (Sigma, St Louis, U.S.A.) an adjuvant of general veterinary use. The relative immunogenicity of the two peptide sequences was compared according to standard titration of the immune products generated.
Experiments were performed in adult female New Zealand White rabbits weighing between 1.5-2 kg at the beginning of the study. They were kept on a 12 h light/12 h dark cycle and housed with free access to food and water. All animals were manipulated according to the European legislation (86/609/EEC) for animal handling and experimentation. Procedures were approved by the Ethic Committee of the Universitat de Barcelona, under supervision of the Generalitat de Catalunya; all efforts were made to minimize animal suffering and to use only the number of animals necessary to produce reliable scientific data.
Rabbits were subcutaneously immunized with 100 μg of peptide from either: a) SEQ ID NO 3 conjugated with KLH and 1 mg Alum used as adjuvant (n=2); b) SEQ ID NO 1 conjugated with KLH and 1 mg Alum used as adjuvant (n=2); or c) KLH and 1 mg Alum (no peptide n=2). The immunization protocol consisted of a dose subcutaneously delivered up to six sites near the back of the neck, and repeated at days 11, 21, 31 and 41.
Samples of serum were collected from each rabbit at days 0, 21, 31 and 51. Each time, 5 ml blood samples were collected from the ear marginal vein in plastic tubes with no additive. At day 71 rabbits were anaesthetized and exanguinated. Blood samples were then kept at room temperature (RT) for 30 min, afterwards they were centrifuged for 10 min at 3000 rpm. Supernatants were collected as serum samples, aliquoted and stored at −80° C.
Titration of serum samples to detect the presence of antibodies that had been raised by SEQ ID NO 1 and SEQ ID NO 3 was performed by Enzime-Linked Immunosorbent Assays (ELISA) on 96-well plates developed by the biotin-avidin-peroxidase method. Plate sensitization was made overnight at 4° C. with 2 μg/ml of Abeta 1-40 peptide diluted in 50 mM NaHCO3, pH 9.6. […] After washing, specific binding was detected by incubation with Biotin conjugated anti-Rabbit IgG antibody (Sigma, St. Louis, Mo., U.S.A) diluted 1/20000 in TBS for 1 hour at RT. […] Plates were densitometrically analyzed at 450 nm with a Tecan Sunrise Absorbance Reader apparatus (Tecan Iberica, Madrid, Spain). […]

[2] = target: T1, canine Abeta 1-40 peptide; experiment: Anti-Abeta IgG titration (ELISA) of serum from immunized dogs; assay type: in vivo, dog
Protocol: To validate the immunogenicity of the peptide according to the present invention, dogs were immunized with the synthesized Abeta 28-40 peptide (SEQ ID NO 3) and antibody generation was assessed in serum samples by ELISA. To do that, the peptide fragment was administered conjugated with KLH and mixed with 1 mg Alum (Sigma, St. Louis, Mo., U.S.A.), an adjuvant of general veterinary use. The immunogenicity of the Abeta28-40 peptide was compared versus pre-immune serum according to standard titration of the immune products generated.
Male and female dogs of various breeds, sex and ages certified by their medical records from the veterinary hospital Ars Veterinaria of Barcelona, Spain, were used in this study. In all cases, pet owners formally informed approved the treatment of their dogs. All animals were treated according to European legislation on animal experimentation (86/609/EU), and procedures were approved by the Ethical Committee of the University of Barcelona. All efforts were made to minimize animal suffering and to use no more than the number of animals needed for reliable scientific data.
Dogs were subcutaneously immunized with either: a) 100 μg per animal of SEQ ID NO 3 conjugated with KLH and 1 mg Alum used as adjuvant (n=2) or b) 100 μg per animal of KLH and 1 mg Alum (no peptide n=2). […]

[3] = system: Aβ 1-40 and Aβ 1-42, diffuse plaque; details: aged beagles (8.4-12.4 years) immunized for 2.4 years; several cortical regions; cited from earlier work
aged beagles = aged beagles (8.4-12.4 years) immunized for 2.4 years; cited from earlier work

Abeta 1-40 peptide, sequence (Q28280 7-46 limits assumed): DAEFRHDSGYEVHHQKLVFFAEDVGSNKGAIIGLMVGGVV
T1 sequence (Q28280 7-46): as the sequence (Q28280 7-46 limits assumed) above

Row | Substance | titers of anti-Abeta antibodies in the basic elution ([1]; basic elution (100 mM glycine, 4 M urea, pH 9), slightly lower than the acid elution) | titers of specific antibodies against canine Abeta1-40 in purified sera ([1]; day 31 serum of immunized rabbits, affinity purified on Abeta1-40 column) | serum dilution that presents half of the maximal binding (B1/2) (Abeta 1-40 peptide; 100 μg peptide s.c. conjugated with KLH + 1 mg Alum, repeated days 11, 21, 31, 41, serum of day 31) | immunogenic response compared with SEQ ID NO 1 (Abeta 1-40 peptide; comparison of B1/2 dilutions of day 31) | specific production of antibodies in serum samples (Abeta 1-40 peptide; peptide-KLH + Alum s.c., from day 21 following the first immunization) | day of highest levels of immunization (Abeta 1-40 peptide; peptide-KLH + Alum s.c., serum days 0, 21, 31, 51) | specific production of anti-Abeta antibodies in serum samples ([2]; 100 μg per animal conjugated with KLH + 1 mg Alum s.c., repeated days 31, 61, 75, day 30 after first immunization) | day of highest values of optic density ([2]; peptide-KLH + Alum s.c., serum days 0, 30, 60, 74, 90) | extent of diffuse plaque accumulation [3] | levels of soluble and insoluble Aβ 1-40 and Aβ 1-42 [3] | measures of learning, spatial attention, or spatial memory (aged beagles)
1 | KGAIIGLMVGGVV (also: KLH conjugate) [SEQ ID NO 3, canine Abeta protein amino acids 28 to 40; tested conjugated with KLH plus Alum] | high titers | High titers | 1/611 | higher immunogenic response | detected | 31 days | detected | 74 days | – | – | –
2 | fibrillar Aβ (1-42): fibrillar Aβ (1-42) formulated with aluminum salt (Alum), Head et al. 2008 | – | – | – | – | – | – | – | – | significantly decreased | significantly decreased | no improvement
